How the values were obtained:
[1] = biological target: T1, cytosolic tail of ALCAM, ALCAM551-583 (Homo sapiens, UniProt Q13740); assay: Ang II-induced ICAM-1 expression in ARPE cells transfected with cytosolic tail of ALCAM; format: cell-based; settings: Ang II 1 μM
T1 construct: corresponds to residues 551-583 of ALCAM, with initial Methionine already present; expressed in transfected cells; host or cells: human ARPE (adult retinal pigment epithelial) cells; insert in pCIneo
T1 sequence (Q13740 551-583 limits assumed): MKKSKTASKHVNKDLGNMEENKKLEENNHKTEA
Procedure: (§1) Adult retinal pigment epithelial (ARPE) cells were cultured in Dulbecco's modified Eagle's medium (DMEM)/F12 endothelial cell growth supplement (ECGS) supplemented media. Chinese Hamster Ovary (CHO) cells were cultured using F12 media (10% FCS with 2 mM glutamine). Human microvascular endothelial cells (HMEC) were cultured in MCDB 131 medium (10% FCS with 10 mM glutamine, EGF and hydrocortisone).
(§2) Oligonucleotides were designed and ordered to generate the ALCAM, BCAM and MCAM intracellular (cytosolic) domains. These included a 5′ NheI site, Kozak sequence and initiating Methionine and then DNA sequences corresponding to ALCAM residues 552-583, BCAM residues 569-628 and MCAM residues 584-637 respectively (Note that as residue 551 of ALCAM is Methionine, the cytosolic tail of ALCAM effectively corresponded to residues 551-583). […]
(§3) After 2 hours of exposure to Ang II (1 μM) cells were placed in Trizol, mRNA extracted and cDNA synthesized. Changes in the gene expression of the NFκB subunit, p65 (RelA) or NFκB-activated target genes (e.g ICAM-1) were estimated by quantitative real-time RT-PCR, performed using the TaqMan system based on real-time detection of accumulated fluorescence (ABI Prism 7700, Perkin-Elmer Inc, PE Biosystems, Foster City, Calif., USA). […]

[2] = biological target: T2, cytosolic tail of BCAM, BCAM569-628 (Homo sapiens, UniProt P50895); assay: Ang II-induced ICAM-1 expression in ARPE cells transfected with cytosolic tail of BCAM; format: cell-based; design: corresponds to residues 569-628 of BCAM plus an initiating Methionine; initiating Methionine (N); expressed in transfected cells; host or cells: human ARPE (adult retinal pigment epithelial) cells; insert in pCIneo; settings: Ang II 1 μM, treatment with oligopeptide (FIG. 2C)
T2 sequence (P50895 with tags, fused parts or gaps): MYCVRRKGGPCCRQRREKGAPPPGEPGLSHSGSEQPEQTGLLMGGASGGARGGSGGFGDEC
Procedure: as §1, §2, §3

AT1R-CHO cells = assay: p65 expression in AT1R-CHO cells expressing the truncated construct alone; format: cell-based, Chinese Hamster; settings: for induction of p65 expression by Ang II when the construct alone is expressed: AT1R-CHO cells, Ang II 1 μM (FIG. 3A, 5A, 5B); for induction of p65 expression following exposure to S100A8/9 when the construct alone is expressed: S100A8/9 1 μM (FIG. 4A)
Procedure: as §1
(§4) 100 ng of AT1R-Rluc8 construct was transfected into CHO cells using Lipofectamine 2000 (Thermo). Stable transfectants were selected using G418. AT1R-CHO were then transiently transfected with the IgSF CAM and/or RAGE constructs using Lipofectamine 2000 (Invitrogen) and incubated for 16h.
(§5) Oligonucleotides were designed and ordered to generate the ALCAM, BCAM and MCAM intracellular (cytosolic) domains. These included a 5′ NheI site, Kozak sequence and initiating Methionine and then DNA sequences corresponding to ALCAM residues 552-583, BCAM residues 569-628 and MCAM residues 584-637 respectively (Note that as residue 551 of ALCAM is Methionine, the cytosolic tail of ALCAM effectively corresponded to residues 551-583). The pCIneo parental vector was digested with NheI and NotI restriction enzymes, and the DNA of the fragments of the ALCAM, BCAM and MCAM tails/cytosolic domains were ligated into the digested plasmid. After transformation and recovery, colonies were screened and individual clones sequenced. The sequence of the insert was confirmed by DNA sequencing (Micromon, Monash University). A full-length clone of Mouse ALCAM (BC027280) was purchased from Origene. The untagged clone was supplied in the vector pCMV6. Overlapping DNA sequences were ordered to generate the ALCAM559-580 fragment oligonucleotide. These included a 5′ NheI site, Kozak sequence and initiating Methionine and then DNA sequences corresponding to ALCAM residues 559-580. The pCIneo parental vector was digested with NheI and NotI restriction enzymes, and the ALCAM559-580 construct DNA was ligated into the digested plasmid. After transformation and recovery, colonies were screened and individual clones sequenced.
(§6) After 2 hours of exposure to Ang II (1 μM) cells were placed in Trizol, mRNA extracted and cDNA synthesized. Changes in the gene expression of the NFκB subunit, p65 (RelA) or NFκB-activated target genes (e.g ICAM-1) were estimated by quantitative real-time RT-PCR, performed using the TaqMan system based on real-time detection of accumulated fluorescence (ABI Prism 7700, Perkin-Elmer Inc, PE Biosystems, Foster City, Calif., USA). Gene expression was normalized to 18S mRNA and reported as fold change compared to the level of expression in untreated control mice/cells, which were given an arbitrary value of 1.

[3] = biological target: T3, cytosolic tail of human CADM4, CADM4346-388 (Homo sapiens, UniProt Q8NFZ8); assay: Ang II-induced p65 expression in AT1R-CHO cells transfected with cytosolic tail of CADM4; format: cell-based; settings: Ang II 1 μM, co-transfection (FIG. 3K)
T3 construct: initiating Methionine (N); expressed in transfected cells; host or cells: AT1R-CHO (CHO stably transfected with human AT1R-Rluc8), transient transfection
T3 sequence (Q8NFZ8 with tags, fused parts or gaps): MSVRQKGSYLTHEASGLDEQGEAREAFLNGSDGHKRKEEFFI
Procedure: as §1, §4, §6

[4] = biological target: T4, human ALCAM (ALCAM1-583, cytosolic tail ALCAM551-583) (Homo sapiens, UniProt Q13740); assay: Ang II-induced p65/PCNA expression in AT1R-CHO cells transfected with human ALCAM (full length or cytosolic tail); format: cell-based; settings: Ang II 1 μM, co-transfection (FIG. 3G, 1E)
T4 construct: expressed in transfected cells; host or cells: AT1R-CHO (CHO stably transfected with human AT1R-Rluc8), transient transfection
T4 sequence (Q13740 551-583): T1 sequence (Q13740 551-583 limits assumed)
Procedure: as §1, §4, §5, §6

[5] = biological target: T2, cytosolic tail of BCAM, BCAM569-628; assay: Ang II-induced p65 expression in AT1R-CHO cells transfected with cytosolic tail of BCAM; format: cell-based; design: corresponds to residues 569-628 of BCAM plus an initiating Methionine; initiating Methionine (N); expressed in transfected cells; host or cells: AT1R-CHO (CHO stably transfected with human AT1R-Rluc8); insert in pCIneo; settings: Ang II 1 μM, co-transfection (FIG. 3H)
Procedure: as §1, §4
(§7) Oligonucleotides were designed and ordered to generate the ALCAM, BCAM and MCAM intracellular (cytosolic) domains. […]
as §3

[6] = biological target: T5, cytosolic tail of human EpCAM, EpCAM289-314 (Homo sapiens, UniProt P16422); assay: Ang II-induced p65 expression in AT1R-CHO cells transfected with cytosolic tail of EpCAM; format: cell-based; settings: Ang II 1 μM, co-transfection (FIG. 3J)
T5 construct: corresponds to residues 289-314 of EpCAM plus an initiating Methionine; initiating Methionine (N); expressed in transfected cells; host or cells: AT1R-CHO (CHO stably transfected with human AT1R-Rluc8), transient transfection
T5 sequence (P16422 with tags, fused parts or gaps limits assumed): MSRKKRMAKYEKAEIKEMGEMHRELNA
Procedure: as §1, §4, §6

[7] = biological target: T6, cytosolic tail of MCAM, MCAM584-637 (Homo sapiens, UniProt P43121); assay: Ang II-induced p65 expression in AT1R-CHO cells transfected with cytosolic tail of MCAM; format: cell-based; design: corresponds to residues 584-637 of MCAM plus an initiating Methionine; initiating Methionine (N); expressed in transfected cells; host or cells: AT1R-CHO (CHO stably transfected with human AT1R-Rluc8); insert in pCIneo; settings: Ang II 1 μM, co-transfection (FIG. 3I)
T6 sequence (P43121 with tags, fused parts or gaps): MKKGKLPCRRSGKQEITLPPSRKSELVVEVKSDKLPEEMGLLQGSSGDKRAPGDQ
Procedure: as §1, §4, §7, §3

[8] = biological target: T6, cytosolic tail of MCAM, MCAM584-637; assay: Ang II-induced ICAM-1 expression in ARPE cells transfected with cytosolic tail of MCAM; format: cell-based; design: corresponds to residues 584-637 of MCAM plus an initiating Methionine; initiating Methionine (N); expressed in transfected cells; host or cells: human ARPE (adult retinal pigment epithelial) cells; insert in pCIneo; settings: Ang II 1 μM, co-transfection (FIG. 2B)
Procedure: as §1, §2, §3

[9] = biological target: T7, full length murine ALCAM1-583 (Mus musculus, UniProt Q61490); assay: S100A8/A9-induced PCNA expression in CHO cells transfected with full length murine ALCAM; format: cell-based; settings: S100A8/A9 1 μM 2 h, co-transfection (FIG. 4A)
T7 construct: host or cells: AT1R-CHO (CHO stably transfected with human AT1R-Rluc8), transient transfection; untagged clone in pCMV6
T7 sequence (Q61490 28-583): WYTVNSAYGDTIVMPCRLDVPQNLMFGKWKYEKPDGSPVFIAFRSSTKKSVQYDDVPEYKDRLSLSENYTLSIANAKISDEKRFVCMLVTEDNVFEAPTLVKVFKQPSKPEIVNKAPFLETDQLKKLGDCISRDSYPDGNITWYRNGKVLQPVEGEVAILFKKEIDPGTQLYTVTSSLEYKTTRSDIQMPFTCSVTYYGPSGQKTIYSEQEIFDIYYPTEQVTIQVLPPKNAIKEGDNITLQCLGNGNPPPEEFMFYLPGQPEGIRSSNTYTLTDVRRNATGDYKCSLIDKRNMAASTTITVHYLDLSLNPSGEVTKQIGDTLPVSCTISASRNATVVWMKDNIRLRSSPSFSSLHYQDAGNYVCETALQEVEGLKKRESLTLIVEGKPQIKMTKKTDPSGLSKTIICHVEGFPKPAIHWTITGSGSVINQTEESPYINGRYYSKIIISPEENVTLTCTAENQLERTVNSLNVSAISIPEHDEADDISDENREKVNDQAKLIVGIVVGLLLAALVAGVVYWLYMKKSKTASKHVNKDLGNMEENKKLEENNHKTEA
Procedure: as §1
as §2, with “551-583). The pCIneo parental vector was digested with NheI and NotI restriction enzymes, and the DNA of the fragments of the ALCAM, BCAM and MCAM tails/cytosolic domains were ligated into the digested plasmid.” for “551-583).”
as §3, with “After 2 hours of exposure to Ang II (1 μM) cells were placed in Trizol, mRNA extracted and cDNA synthesized.” left out

[10] = biological target: T7, full length murine ALCAM1-583; assay: Ang II-induced p65/PCNA expression in AT1R-CHO cells transfected with full length murine ALCAM (qRT-PCR); format: cell-based; settings: Ang II 1 μM 2 h, co-transfection of the construct, vs pCIneo (FIG. 3B, 5B)
Procedure: as §1, §4
as §5, with “Overlapping DNA sequences were ordered to generate the ALCAM559-580 fragment oligonucleotide. These included a 5′ NheI site, Kozak sequence and initiating Methionine and then DNA sequences corresponding to ALCAM residues 559-580. The pCIneo parental vector was digested with NheI and NotI restriction enzymes, and the ALCAM559-580 construct DNA was ligated into the digested plasmid. After transformation and recovery, colonies were screened and individual clones sequenced.” left out
as §3

Row | proinflammatory signalling (ICAM-1) induced by Ang II mediated by the cytosolic tail of ALCAM ([1]; treatment with oligopeptide (FIG. 2C)) | NFKB-dependent induction of ICAM-1 gene expression by Ang II via BCAM569-628 [2] | induction of p65-NFκB expression by Ang II via transactivation of CADM4346-388 [3] | induction of p65-NFκB expression by Ang II via transactivation of the cytosolic tail of human ALCAM, ALCAM551-583 [4] | induction of p65-NFκB expression by Ang II via transactivation of BCAM569-628 [5] | induction of p65-NFκB expression by Ang II via transactivation of EpCAM289-314 [6] | induction of p65-NFκB expression by Ang II via transactivation of MCAM584-637 [7] | NFKB-dependent induction of ICAM-1 gene expression by Ang II via ALCAM551-583 ([1]; co-transfection (FIG. 2A)) | NFKB-dependent induction of ICAM-1 gene expression by Ang II via MCAM584-637 [8] | ligand-dependent signalling (PCNA expression) via murine ALCAM activated by S100A8/A9 [9] | induction of p65-NFκB expression by Ang II via AT1R-dependent transactivation of full length murine ALCAM1-583 [10] | Sequence | induction of p65 expression by Ang II when the construct alone is expressed (AT1R-CHO cells) | induction of p65 expression following exposure to S100A8/9 when the construct alone is expressed (AT1R-CHO cells)
1 | inhibited | inhibited | – | – | – | – | – | – | – | – | – | MLWQRRQRRGEERKAPENQEEEEERAELNQAEEPEAGESSTGGP (Synthetic peptide - Truncated amino acid sequence of human RAGE protein corresponding to residues 362 to 404 of human RAGE protein with a mutation of Serine 391 to Alanine plus an initiating methionine residue) [S391A-RAGE362-404, entire cytosolic tail of RAGE with serine391 mutated to alanine] | – | –
2 | – | – | prevents induction | prevents induction | prevents induction | prevents induction | prevents induction | – | – | – | – | QEEEEERAELNQ (Synthetic peptide - Truncated amino acid sequence corresponding to residues 379 to 390 of human RAGE protein) [RAGE379-390] | no induction of p65 expression is observed | no induction of p65 expression is observed
3 | – | – | – | inhibited | – | – | – | inhibited | inhibited | inhibited | inhibited | MGEERKAPENQEEEEERAELNQ [RAGE370-390] | no induction of p65 expression is observed | no induction of p65 expression is observed

Source: patent publication US20220169693A1, “Screening Assays, Modulators and Modulation of Intracellular Signalling Mediated by Immunoglobulin Superfamily Cell Adhesion Molecules” (Monash University, priority 2018, published 2022)
